PMC9755262 (Nature Communications, 2022)

Columns and labels:
[1] = biological target: GST-NUT8 wild type (396-470) (UniProt Q86Y26); assay: BLI; GST-NUT8 wild type or mutants loaded on Anti-GST biosensors, TAZ2 (1723-1836) as analyte; 25 °C; 1x PBS, 0.1% BSA, 0.02% Tween 20; steady-state analysis
NUT4 (347-480), Q86Y26 = biological target: T1, NUT4 (347-480), Q86Y26; assay: SEC-MALS; Superdex 75 Increase 10/300 GL, 20 mM HEPES pH 7.0, 300 mM NaCl, 5 µM ZnSO4, 0.5 mM TCEP; 50 µl at 2 mg/ml injected
T1 chain: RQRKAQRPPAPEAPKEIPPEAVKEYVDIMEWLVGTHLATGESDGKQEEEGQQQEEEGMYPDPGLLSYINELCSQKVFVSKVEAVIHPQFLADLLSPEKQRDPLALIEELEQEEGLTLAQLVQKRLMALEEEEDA

[2] = biological target: T2, p300 TAZ2 domain (1723-1836), Q09472; assay: BLI; details: chain shown with the change, read off a plot
T2 chain: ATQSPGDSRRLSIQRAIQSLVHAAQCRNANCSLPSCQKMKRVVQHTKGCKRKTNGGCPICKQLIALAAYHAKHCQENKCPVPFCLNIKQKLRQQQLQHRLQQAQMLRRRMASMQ

[3] = biological target: T3, NUT-F1c (347-588), tag cleaved (UniProt Q86Y26 347-588); assay: SEC; complex run on HiLoad Superdex 200, Superdex 200 Increase 10/300 GL or Superdex 75 Increase 10/300 GL; SDS-PAGE of the peak fractions; details: both partners purified
T3 construct: not shown: His6-GST (pETM-30) or His6 (pETM11), N-terminal, cleaved

p300 TAZ2 domain (1723-1836) (from UniProt Q09472 1723-1836) (domain or fragment)
Kd [1]: 960 nM

B1: p300 TAZ2 domain (construct limits not told for the experiment) (domain or fragment)
chain: ATQSPGDSRRLSIQRAIQSLVHAAQCRNANCSLPSCQKMKRVVQHTKGCKRKTNGGCPICKQLIALAAYHAKHCQENKCPVPFCLNIKQKLRQQQLQHRLQQAQMLRRRMASMQ
modifications: not checked
stoichiometry N (NUT4 (347-480), Q86Y26): 1

B2: GST-NUT8 wild type D407K; L410A; Y413K; C418G; F423A; V424G; E428S; V430G; P433G; F435S; L439G; L440S; D447K; A450G; L451S; E454K; L455S; E458K; E459S; L461G; … (protein)
chain: GQQQEEEGMYPKPGALSKINELGSQKVAGSKVSAGIHGQSLADGSSPEKQRKPLGSIEKSEQKSGGSLAQLVQKRLMALEEEEDAE
response ([2]; TAZ2 10 µM, parent: est. 0.22): 0.03 nm

B3: GST-NUT8 wild type D447A; L449A; A450G; L451A; E453A; E454A; L455A; E456A; E458A; E459A; L461A; T462A (protein)
chain: GQQQEEEGMYPDPGLLSYINELCSQKVFVSKVEAVIHPQFLADLLSPEKQRAPAGAIAAAAQAAGAALAQLVQKRLMALEEEEDAE
response ([2]; TAZ2 2.5 µM, parent: est. 0.18): 0.07 nm | response ([2]; TAZ2 5 µM, parent: est. 0.21): 0.11 nm | response ([2]; TAZ2 10 µM, parent: est. 0.22): 0.13 nm

B4: GST-NUT8 wild type L436A; L439A; L440A; D447A; L449A; A450G; L451A; E453A; E454A; L455A; E456A; E458A; E459A; L461A; T462A (protein)
chain: GQQQEEEGMYPDPGLLSYINELCSQKVFVSKVEAVIHPQFAADAASPEKQRAPAGAIAAAAQAAGAALAQLVQKRLMALEEEEDAE
response ([2]; TAZ2 2.5 µM, parent: est. 0.18): 0.075 nm | response ([2]; TAZ2 5 µM, parent: est. 0.21): 0.14 nm | response ([2]; TAZ2 10 µM, parent: est. 0.22): 0.2 nm

B5: p300 CH3 domain (1660-1815) (domain or fragment, UniProt Q09472 1660-1815, looked up)
chain: TQSQDRFVYTCNECKHHVETRWHCTVCEDYDLCITCYNTKNHDHKMEKLGLGLDDESNNQQAAATQSPGDSRRLSIQRCIQSLVHACQCRNANCSLPSCQKMKRVVQHTKGCKRKTNGGCPICKQLIALCCYHAKHCQENKCPVPFCLNIKQKLRQ
notes: p300 CH3 domain, residues 1660-1815, in pGEX-5x1 with a TEV-cleavable GST tag
binding result [3]: binds

B6: GST-NUT8 wild type L410A; L411A; Y413A; L417A; C418A; F423A; V424A; V427A; V430A; I431A; F435A; L436A; L439A; L440A; D447A; L449A; A450G; L451A; E453A; E454A; … (protein)
chain: GQQQEEEGMYPDPGAASAINEAASQKVAASKAEAAAHPQAAADAASPEKQRAPAGAIAAAAQAAGAALAQLVQKRLMALEEEEDAE
response ([2]; TAZ2 10 µM, parent: est. 0.22): 0.085 nm
